Measurements reported in patent US20240398911A1.

How the values were obtained:
Test in all cases: BLI, sACE22-IgG1 immobilized, RBD-8h analyte
[1] = target: 8his-tagged RBD of the S protein of bat coronavirus isolate Rs7327 (bat coronavirus Rs7327)
[2] = target: 8his-tagged RBD of the S protein of bat coronavirus isolate Rs4231 (bat coronavirus Rs4231)
[3] = target: 8his-tagged RBD of the S protein of bat coronavirus isolate Rs4084 (bat coronavirus Rs4084)
[4] = target: 8his-tagged RBD of the S protein of bat coronavirus isolate RsSHC014 (bat coronavirus RsSHC014)
[5] = target: 8his-tagged RBD of the S protein of bat coronavirus isolate LYRa11 (bat coronavirus LYRa11)

sACE22.v2.4 fused to human IgG1 Fc (Fc fusion)
Kd [1]: 1.9 nM | koff [1]: 0.0018 s⁻¹ | kon [1]: 980000 M⁻¹ s⁻¹ | Kd [2]: 3.5 nM | koff [2]: 0.0016 s⁻¹ | kon [2]: 450000 M⁻¹ s⁻¹ | Kd [3]: 3.1 nM | koff [3]: 0.0015 s⁻¹ | kon [3]: 480000 M⁻¹ s⁻¹ | Kd [4]: 1.3 nM | koff [4]: 0.002 s⁻¹ | kon [4]: 1.6e+06 M⁻¹ s⁻¹ | Kd [5]: 1.8 nM | koff [5]: 0.0025 s⁻¹ | kon [5]: 1.4e+06 M⁻¹ s⁻¹
